# US20230357447A1 (JANUX THERAPEUTICS, published 2023)
# Columns and labels:
# [1] = target: T1, Anti-CD28 scFv (VH-linker 1-VL) (biotinylated for capture on neutravidin plates); assay: phage ELISA, scFv captured on plate;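 also: crude clonal phage supernatants added to wells preincubated with soluble CD28 or with blocking buffer only, bound phage read out by HRP-linked anti-M13 antibody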
# Procedure: (§1) Clonal phage were harvested as crude supernatants and screened via standard enzyme linked immunosorbent assays (ELISAs). […] Prior to the addition of clonal phage, wells were incubated with blocking buffer and CD28 soluble protein or blocking buffer alone. Without washing or aspirating, clonal phage supernatants were then added to the wells and incubated for a short time. Wells were then washed followed by detection of bound phage using a horse radish peroxidase conjugated anti-M13 antibody.
# [2] = target: T1, Anti-CD28 scFv (VH-linker 1-VL); assay: phage ELISA, scFv captured on plate, competitor soluble CD28;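 also: crude clonal phage supernatants added to wells pre-incubated with soluble CD28 or with blocking buffer only as control, bound phage read out with HRP-linked anti-M13 antibody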
# Procedure: as §1
# T1 sequence (scFv, as listed by the source): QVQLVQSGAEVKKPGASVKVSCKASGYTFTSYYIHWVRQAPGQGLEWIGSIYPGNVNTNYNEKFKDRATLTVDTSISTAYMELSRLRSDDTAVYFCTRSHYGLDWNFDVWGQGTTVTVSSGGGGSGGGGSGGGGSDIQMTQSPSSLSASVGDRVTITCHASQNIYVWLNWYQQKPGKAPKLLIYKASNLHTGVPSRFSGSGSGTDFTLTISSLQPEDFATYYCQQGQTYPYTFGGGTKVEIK
binder,measurement,setting,value
MDWCPAYLWAECFS [Phage-175],Phage binding ELISA CD28 scFv signal,[1],0.64
same,Phage binding ELISA CD28 scFv signal in presence of CD28,[2],0.12
MDWCPKHLWHQCFH [Phage-156],Phage binding ELISA CD28 scFv signal,[1],1.35
same,Phage binding ELISA CD28 scFv signal in presence of CD28,[2],0.108
MDWCPFYLWDECFL [Phage-165],Phage binding ELISA CD28 scFv signal,[1],1.02
same,Phage binding ELISA CD28 scFv signal in presence of CD28,[2],0.141
MDWCPKFLWDLCFA [Phage-164],Phage binding ELISA CD28 scFv signal,[1],1.07
same,Phage binding ELISA CD28 scFv signal in presence of CD28,[2],0.139
MDWCPSYLWHECFA [Phage-134],Phage binding ELISA CD28 scFv signal,[1],2.28
same,Phage binding ELISA CD28 scFv signal in presence of CD28,[2],0.198
MDWCPRHLWSECFY [Phage-146],Phage binding ELISA CD28 scFv signal,[1],1.92
same,Phage binding ELISA CD28 scFv signal in presence of CD28,[2],0.199
MDWCPRHLWNVCFS [Phage-150],Phage binding ELISA CD28 scFv signal,[1],1.61
same,Phage binding ELISA CD28 scFv signal in presence of CD28,[2],0.176
MDWCPRHMWNVCFS [Phage-204],Phage binding ELISA CD28 scFv signal,[1],2.25
same,Phage binding ELISA CD28 scFv signal in presence of CD28,[2],0.13
MDFCPISLWHECFF [Phage-151],Phage binding ELISA CD28 scFv signal,[1],1.58
same,Phage binding ELISA CD28 scFv signal in presence of CD28,[2],0.129
MDWCPVILWDFCFN [Phage-142],Phage binding ELISA CD28 scFv signal,[1],2.03
same,Phage binding ELISA CD28 scFv signal in presence of CD28,[2],0.173
MHWCPEYLWNECFA [Phage-148],Phage binding ELISA CD28 scFv signal,[1],1.69
same,Phage binding ELISA CD28 scFv signal in presence of CD28,[2],0.092
MDWCPKHLWIECFA [Phage-145],Phage binding ELISA CD28 scFv signal,[1],1.98
same,Phage binding ELISA CD28 scFv signal in presence of CD28,[2],0.132
MHWCPLHLWNECYH [Phage-155],Phage binding ELISA CD28 scFv signal,[1],1.37
same,Phage binding ELISA CD28 scFv signal in presence of CD28,[2],0.113
MDWCPRYLWHECFH [Phage-137],Phage binding ELISA CD28 scFv signal,[1],2.19
same,Phage binding ELISA CD28 scFv signal in presence of CD28,[2],0.308
MDWCPRSLWNVCFF [Phage-141],Phage binding ELISA CD28 scFv signal,[1],2.13
same,Phage binding ELISA CD28 scFv signal in presence of CD28,[2],0.356
MDWCPPYLWYECFA [Phage-172],Phage binding ELISA CD28 scFv signal,[1],0.692
same,Phage binding ELISA CD28 scFv signal in presence of CD28,[2],0.094
MDWCPKFLWHECFS [Phage-135],Phage binding ELISA CD28 scFv signal,[1],2.28
same,Phage binding ELISA CD28 scFv signal in presence of CD28,[2],0.142
MDWCPSYLWTVCFA [Phage-129],Phage binding ELISA CD28 scFv signal,[1],2.34
same,Phage binding ELISA CD28 scFv signal in presence of CD28,[2],0.096
MDWCPMDLWDVCFN [Phage-140],Phage binding ELISA CD28 scFv signal,[1],2.15
same,Phage binding ELISA CD28 scFv signal in presence of CD28,[2],0.263
MDWCPRSLWSYCFH [Phage-157],Phage binding ELISA CD28 scFv signal,[1],1.33
same,Phage binding ELISA CD28 scFv signal in presence of CD28,[2],0.152
MHWCPRDLWVVCFN [Phage-147],Phage binding ELISA CD28 scFv signal,[1],1.83
same,Phage binding ELISA CD28 scFv signal in presence of CD28,[2],0.112
MDWCPRHLWYACFN [Phage-144],Phage binding ELISA CD28 scFv signal,[1],2.01
same,Phage binding ELISA CD28 scFv signal in presence of CD28,[2],0.159
MDWCPKHLWNECFN [Phage-174],Phage binding ELISA CD28 scFv signal,[1],0.663
same,Phage binding ELISA CD28 scFv signal in presence of CD28,[2],0.105
MDWCPRYLWDACFF [Phage-130],Phage binding ELISA CD28 scFv signal,[1],2.34
same,Phage binding ELISA CD28 scFv signal in presence of CD28,[2],0.168
LDWCPLNLWDLCYF [Phage-143],Phage binding ELISA CD28 scFv signal,[1],2.03
same,Phage binding ELISA CD28 scFv signal in presence of CD28,[2],0.095
MHWCPRALWHECFN [Phage-160],Phage binding ELISA CD28 scFv signal,[1],1.18
same,Phage binding ELISA CD28 scFv signal in presence of CD28,[2],0.144
MAWCPMNLWDQCFF [Phage-159],Phage binding ELISA CD28 scFv signal,[1],1.2
same,Phage binding ELISA CD28 scFv signal in presence of CD28,[2],0.145
MDWCPRDLWNVCFA [Phage-154],Phage binding ELISA CD28 scFv signal,[1],1.38
same,Phage binding ELISA CD28 scFv signal in presence of CD28,[2],0.145
MDWCPRDLWNVCFN [Phage-169],Phage binding ELISA CD28 scFv signal,[1],0.74
same,Phage binding ELISA CD28 scFv signal in presence of CD28,[2],0.108
MDWCPRDLWDVCFA [Phage-139],Phage binding ELISA CD28 scFv signal,[1],2.16
same,Phage binding ELISA CD28 scFv signal in presence of CD28,[2],0.28
MDWCPRDLWAVCFA [Phage-149],Phage binding ELISA CD28 scFv signal,[1],1.67
same,Phage binding ELISA CD28 scFv signal in presence of CD28,[2],0.089
MDWCPTNLWHECFA [Phage-138],Phage binding ELISA CD28 scFv signal,[1],2.16
same,Phage binding ELISA CD28 scFv signal in presence of CD28,[2],0.096
MNWCPSDLWHLCFN [Phage-170],Phage binding ELISA CD28 scFv signal,[1],0.739
same,Phage binding ELISA CD28 scFv signal in presence of CD28,[2],0.131
MNWCPTDLWHECFN [Phage-162],Phage binding ELISA CD28 scFv signal,[1],1.09
same,Phage binding ELISA CD28 scFv signal in presence of CD28,[2],0.095
MDWCPKDLWHECFN [Phage-168],Phage binding ELISA CD28 scFv signal,[1],0.762
same,Phage binding ELISA CD28 scFv signal in presence of CD28,[2],0.1
MDWCPRSLWIYCFN [Phage-131],Phage binding ELISA CD28 scFv signal,[1],2.34
same,Phage binding ELISA CD28 scFv signal in presence of CD28,[2],0.401
MDWCPTYLWFECFN [Phage-132],Phage binding ELISA CD28 scFv signal,[1],2.33
same,Phage binding ELISA CD28 scFv signal in presence of CD28,[2],0.224
MDWCPRYLWTECFF [Phage-158],Phage binding ELISA CD28 scFv signal,[1],1.26
same,Phage binding ELISA CD28 scFv signal in presence of CD28,[2],0.244
MDWCPKYLWDKCFH [Phage-152],Phage binding ELISA CD28 scFv signal,[1],1.54
same,Phage binding ELISA CD28 scFv signal in presence of CD28,[2],0.109
MDWCPMNLWSECFN [Phage-173],Phage binding ELISA CD28 scFv signal,[1],0.67
same,Phage binding ELISA CD28 scFv signal in presence of CD28,[2],0.124
MFWCPRYLWHECFN [Phage-163],Phage binding ELISA CD28 scFv signal,[1],1.08
same,Phage binding ELISA CD28 scFv signal in presence of CD28,[2],0.175
MNWCPSHLWHMCYF [Phage-171],Phage binding ELISA CD28 scFv signal,[1],0.702
same,Phage binding ELISA CD28 scFv signal in presence of CD28,[2],0.192
MHWCPIYLWDECFN [Phage-136],Phage binding ELISA CD28 scFv signal,[1],2.23
same,Phage binding ELISA CD28 scFv signal in presence of CD28,[2],0.193
MHWCPRYLWDECFN [Phage-180],Phage binding ELISA CD28 scFv signal,[1],0.55
same,Phage binding ELISA CD28 scFv signal in presence of CD28,[2],0.127
MSWCPQDLWHVCFN [Phage-167],Phage binding ELISA CD28 scFv signal,[1],0.86
same,Phage binding ELISA CD28 scFv signal in presence of CD28,[2],0.112
